The text below walks through data of patent US20240270821A1, “GIP/GLP1/GCG TRI-RECEPTOR AGONISTS AND USES THEREOF” (priority 2023, published 2024).

Holding throughout (experiment): cell-based or functional assay
Test [1] deals with human glucagon receptor (human) (UniProt P47871).
The target of test [2] is T1, human GIP receptor (human) (UniProt P48546).
T1 sequence (looked up): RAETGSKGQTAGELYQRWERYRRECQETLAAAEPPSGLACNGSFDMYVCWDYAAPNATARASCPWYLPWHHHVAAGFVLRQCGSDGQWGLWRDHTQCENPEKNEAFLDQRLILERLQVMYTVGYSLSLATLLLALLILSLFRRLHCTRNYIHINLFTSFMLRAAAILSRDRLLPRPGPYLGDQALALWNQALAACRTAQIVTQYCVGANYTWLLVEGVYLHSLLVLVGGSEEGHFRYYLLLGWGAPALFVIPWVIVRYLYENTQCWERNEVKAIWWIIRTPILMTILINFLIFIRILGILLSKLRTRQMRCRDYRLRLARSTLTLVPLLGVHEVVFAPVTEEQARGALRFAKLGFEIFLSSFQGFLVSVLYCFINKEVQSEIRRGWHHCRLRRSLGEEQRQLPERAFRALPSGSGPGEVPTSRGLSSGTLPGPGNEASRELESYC

The target in a further test is hGLP-1R (Homo sapiens, UniProt P43220).
hGLP-1R, sequence (P43220 24-463): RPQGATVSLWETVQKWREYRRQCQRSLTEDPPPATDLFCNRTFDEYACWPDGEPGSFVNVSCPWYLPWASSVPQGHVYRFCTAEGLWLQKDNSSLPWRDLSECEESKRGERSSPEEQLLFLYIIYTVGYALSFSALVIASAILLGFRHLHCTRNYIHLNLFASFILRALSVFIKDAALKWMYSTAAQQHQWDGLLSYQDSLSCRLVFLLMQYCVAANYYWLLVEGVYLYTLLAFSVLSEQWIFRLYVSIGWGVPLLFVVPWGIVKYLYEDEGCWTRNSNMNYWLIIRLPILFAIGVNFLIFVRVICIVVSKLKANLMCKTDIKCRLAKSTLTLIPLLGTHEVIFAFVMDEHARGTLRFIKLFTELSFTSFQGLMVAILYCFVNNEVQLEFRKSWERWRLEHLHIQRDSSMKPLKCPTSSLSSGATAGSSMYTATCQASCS

human glucagon receptor (human), sequence (P47871 26-477): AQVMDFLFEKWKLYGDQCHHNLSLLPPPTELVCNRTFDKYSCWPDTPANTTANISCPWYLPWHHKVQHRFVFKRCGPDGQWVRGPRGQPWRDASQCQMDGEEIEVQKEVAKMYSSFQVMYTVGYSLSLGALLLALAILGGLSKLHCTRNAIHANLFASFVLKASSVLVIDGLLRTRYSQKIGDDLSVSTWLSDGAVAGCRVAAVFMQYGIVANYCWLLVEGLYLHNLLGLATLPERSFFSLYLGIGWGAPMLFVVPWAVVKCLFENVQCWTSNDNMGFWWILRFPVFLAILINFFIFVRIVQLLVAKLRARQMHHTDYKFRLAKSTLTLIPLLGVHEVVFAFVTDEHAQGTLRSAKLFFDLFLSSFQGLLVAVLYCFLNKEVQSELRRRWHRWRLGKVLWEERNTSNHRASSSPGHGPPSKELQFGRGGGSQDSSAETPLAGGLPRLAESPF

B1: Example 608 (peptide)
chain: YXQGTXTSDXSILLDKKAQXAFIEYLEEGGPSSGEPPPSGTEE
modifications: non-natural residues, acylated Lys ((γGlu)2-C18 diacid), C-terminal amide; synthetic construct; SITE 2: note = 2-Aminoisobutyric Acid; SITE 6: note = alpha-methyl-2-fluoro-L-phenylalanine; SITE 10: note = 3-(4-Pyridyl)-L-alanine; SITE 17: note = Lysine is chemically modified through conjugation of the epsilon-amino group of the Lysine side chain with (gamma-Glu)2-CO-(CH2)1
With B1, the values for the Relative cAMP EC50 (in test [1]; in test [2]; with hGLP-1R) were 7.82 nM, 0.124 nM and 1.87 nM, respectively. The cAMP Rel EC50 (in the presence of 1% HSA) was 669 nM in test [1], 8.51 nM in test [2] and 201 nM with hGLP-1R.

B2: Example 611 (peptide)
chain: YXQGTXTSDXSILLDKKAQXAFIEYLEEGGPSSGAPPPSGEEE
modifications: non-natural residues; Lys acylated C18 diacid; C-terminal amide; synthetic construct; SITE 2: note = 2-Aminoisobutyric Acid; SITE 6: note = alpha-methyl-2-fluoro-L-phenylalanine; SITE 10: note = 3-(4-Pyridyl)-L-alanine; SITE 17: note = Lysine is chemically modified through conjugation of the epsilon-amino group of the Lysine side chain with (gamma-Glu)2-CO-(CH2)1
Turning to B2, the Relative cAMP EC50 in test [1] is 6.8 nM; in test [2], 0.126 nM; with hGLP-1R, 1.63 nM. Also, the figures for the cAMP Rel EC50 (in the presence of 1% HSA) (in test [1]; in test [2]; in the test with hGLP-1R) were 627 nM, 7.35 nM and 146 nM, respectively.

B3: Example 610 (peptide)
chain: YXQGTXTSDXSILLDKKAQXAFIEYLEEGGPSSGAPPPSGSEE
modifications: Aib, αMeF(2F), 4Pal; lysine acylated C18 diacid; amide; synthetic construct; SITE 2: note = 2-Aminoisobutyric Acid; SITE 6: note = alpha-methyl-2-fluoro-L-phenylalanine; SITE 10: note = 3-(4-Pyridyl)-L-alanine; SITE 17: note = Lysine is chemically modified through conjugation of the epsilon-amino group of the Lysine side chain with (gamma-Glu)2-CO-(CH2)1
B3: the Relative cAMP EC50 in test [1] worked out at 5.75 nM; in test [2], 0.133 nM; in the test with hGLP-1R it was 1.66 nM. Moreover, the cAMP Rel EC50 (in the presence of 1% HSA) was 536 nM in test [1], 7.02 nM in test [2] and 130 nM with hGLP-1R.

B4: Example 609 (peptide)
chain: YXQGTXTSDXSILLDKKAQXAFIEYLEEGGPSSGAPPPSGTEE
modifications: non-natural residues (Aib, αMeF(2F), 4Pal); lipidated Lys; C-amide; synthetic construct; SITE 2: note = 2-Aminoisobutyric Acid; SITE 6: note = alpha-methyl-2-fluoro-L-phenylalanine; SITE 10: note = 3-(4-Pyridyl)-L-alanine; SITE 17: note = Lysine is chemically modified through conjugation of the epsilon-amino group of the Lysine side chain with (gamma-Glu)2-CO-(CH2)1
Take B4: the figures for the Relative cAMP EC50 (in test [1]; in test [2]; with hGLP-1R) were 6.46 nM, 0.0784 nM and 1.07 nM, respectively. Further, the cAMP Rel EC50 (in the presence of 1% HSA) in test [1] turned out to be 647 nM; in test [2], 6.19 nM; with hGLP-1R it was 121 nM.

B5: Example 613 (peptide)
chain: YXQGTXTSDXSIXLDXKAQXEFIEXLLEGGPSSGAPPPSGE
modifications: Aib, αMeF(2F), 4Pal, Orn, (AEEA)2-γGlu-C18 diacid, amide; synthetic construct; SITE 2: note = 2-Aminoisobutyric Acid; SITE 6: note = alpha-methyl-2-fluoro-L-phenylalanine; SITE 10: note = 3-(4-Pyridyl)-L-alanine; SITE 13: note = alpha-methyl-leucine; SITE 16: note = L-ornithine; SITE 17: note = Lysine is chemically modified through conjugation of the epsil
Turning to B5, the values for the Relative cAMP EC50 (in test [1]; in test [2]; with hGLP-1R) were 20.4 nM, 0.00925 nM and 0.698 nM, respectively. Moreover, the cAMP Rel EC50 (in the presence of 1% HSA) in test [1] worked out at 1410 nM; in test [2], 0.791 nM; with hGLP-1R, 81.6 nM.

B6: Example 614 (peptide)
chain: YXQGTXTSDXSIXLDXKAQXEFIEXLIEGGPSSGAPPPSGE
modifications: non-natural residues, acylated Lys, C-terminal amide; synthetic construct; SITE 2: note = 2-Aminoisobutyric Acid; SITE 6: note = alpha-methyl-2-fluoro-L-phenylalanine; SITE 10: note = 3-(4-Pyridyl)-L-alanine; SITE 13: note = alpha-methyl-leucine; SITE 16: note = L-ornithine; SITE 17: note = Lysine is chemically modified through conjugation of the epsil
As for B6, the Relative cAMP EC50 was 6.36 nM in test [1], 0.0065 nM in test [2] and 0.251 nM in the test with hGLP-1R. Besides, the cAMP Rel EC50 (in the presence of 1% HSA) in test [1] stood at 724 nM; in test [2] it was 0.597 nM; with hGLP-1R it was 33.2 nM.

B7: Example 615 (peptide)
chain: YXQGTXTSDXSIXLDXKAQXEFIEXLLEGGPSSGAPPPSGE
modifications: Aib, αMeF(2F), 4Pal, Orn, Me4Pal, αMeY; acylated lysine; amide; synthetic construct; SITE 2: note = 2-Aminoisobutyric Acid; SITE 6: note = alpha-methyl-2-fluoro-L-phenylalanine; SITE 10: note = 3-(4-Pyridyl)-L-alanine; SITE 13: note = alpha-methyl-leucine; SITE 16: note = L-ornithine; SITE 17: note = Lysine is chemically modified through conjugation of the epsil
Regarding B7, the Relative cAMP EC50 stood at 3.93 nM in test [1], 0.00825 nM in test [2] and 0.575 nM in the test with hGLP-1R. The results for the cAMP Rel EC50 (in the presence of 1% HSA) (in test [1]; in test [2]; with hGLP-1R) were 697 nM, 0.95 nM and 82.9 nM, respectively.

B8: Example 546 (peptide)
chain: YXQGTXTSDXXILLDXKAQXXFIEXLQEGGPSSGEPPPEGAE
modifications: synthetic construct; SITE 2: note = 2-Aminoisobutyric Acid; SITE 6: note = alpha-methyl-2-fluoro-L-phenylalanine; SITE 10: note = 3-(4-Pyridyl)-L-alanine; SITE 11: note = alpha-methyl-L-serine; SITE 16: note = L-ornithine; SITE 17: note = Lysine is chemically modified through conjugation of the epsi
Turning to B8, the Relative cAMP EC50 in test [1] stood at 3.67 nM; in test [2], 0.25 nM; with hGLP-1R it was 0.517 nM. The cAMP Rel EC50 (1% HSA) in test [1] worked out at 225 nM; in test [2], 11.9 nM; with hGLP-1R, 34.4 nM.

B9: Example 598 (peptide)
chain: YXQGTXTSDXXIXLDXKAQXXFIEXLTEGGPSSGEPPPEGTEEE
modifications: non-natural residues; (γGlu)2-C18 diacid on Lys; C-terminal amide; synthetic construct; SITE 2: note = 2-Aminoisobutyric Acid; SITE 6: note = alpha-methyl-2-fluoro-L-phenylalanine; SITE 10: note = 3-(4-Pyridyl)-L-alanine; SITE 11: note = alpha-methyl-L-serine; SITE 13: note = alpha-methyl-leucine; SITE 16: note = L-ornithine; SITE 17: note = Lysine is chemically mo
As for B9, the Relative cAMP EC50 was 8.79 nM in test [1], 0.0927 nM in test [2] and 0.886 nM with hGLP-1R. Moreover, the cAMP Rel EC50 (in the presence of 1% HSA) was determined as 457 nM in test [1], 3.49 nM in test [2] and 47.3 nM with hGLP-1R.

B10: Example 54 (peptide)
chain: YXQGTFTSDFSKXLDKKAQXAFIEYLLEGGPSSGEPPPGEGX
modifications: synthetic construct; SITE 2: note = 2-Aminoisobutyric Acid; SITE 13: note = alpha-methyl-leucine; SITE 17: note = Lysine is chemically modified through conjugation of the epsilon-amino group of the Lysine side chain with (2-[2-(2-Amino-ethoxy)-ethoxy]-acetyl)-(gamma-Glu)-CO-(CH2) 18-CO2H; SITE 20: n
In the case of B10, the results for the Relative cAMP EC50 (in test [1]; in test [2]; with hGLP-1R) were 3.77 nM, 0.502 nM and 3.95 nM, respectively. Further, the cAMP Rel EC50, nM (in the presence of 1% HSA) turned out to be 1940 nM in test [1], 168 nM in test [2] and 1300 nM with hGLP-1R.

B11: Example 56 (peptide)
chain: YXQGTFTSDFSKXLDKKAQXAFIEYLLEGGPSSGAPPPSEGX
modifications: synthetic construct; SITE 2: note = 2-Aminoisobutyric Acid; SITE 13: note = alpha-methyl-leucine; SITE 17: note = Lysine is chemically modified through conjugation of the epsilon-amino group of the Lysine side chain with (2-[2-(2-Amino-ethoxy)-ethoxy]-acetyl)-(gamma-Glu)-CO-(CH2) 16-CO2H; SITE 20: n
Take B11: the Relative cAMP EC50 in test [1] was 2.8 nM; in test [2] it was 0.315 nM; with hGLP-1R, 4.07 nM. Further, the cAMP Rel EC50, nM (in the presence of 1% HSA) was 265 nM in test [1], 30.3 nM in test [2] and 167 nM with hGLP-1R.
